Target: GlcNAc-peptide derived from rhGAA containing N470 glycosite (human)
Sequence (peptide, as listed by the source): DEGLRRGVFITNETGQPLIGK

With Endo A-N171A (enzyme) the transglycosylation of oxazoline 1 to the GlcNAc-peptide, yield of glycopeptide 66 was 53%.

From US20240218342A1, “SITE-SPECIFIC GLYCAN REMODELING OF LYSOSOMAL ENZYMES AND APPLICATIONS THEREOF” (priority 2021, published 2024)
